According to patent publication US20230190869A1, “PEPTIDE INHIBITORS OF GUANINE NUCLEOTIDE EXCHANGE FACTOR H-1” (UCL Business Ltd, priority 2020, published 2023):
Numbered stars: 1 amine (or outer) side, 2 acyl side, 3 side chain; on linkers, the order of the positions; unused ones are H or OH. Bridge positions count the residues as written; N and C are the ends. Square brackets hold non-standard residues; d marks the D form. Ends that are not written are not given here. Peptide text beside a SMILES is read from it. ξ: configuration not given here. ξαMeNle(6-ylidene) = CC(CCCC=[*:3])(N[*:1])C(=O)[*:2]

Experiments:
MDCK and HEK293 cells [1] = assay: Cell toxicity: release of LDH in the medium (necrosis); assay type: cell-based
Experimental: (§1) (A and B) MDCK and HEK293 cells were incubated as described in previous figures with TAT-F1 or TAT-P5. Cell toxicity was then assessed by measuring release of LDH in the medium and caspase 3/7 activity in cell extracts. […] Direct lysis of cells served as a positive control in (A) whereas active caspases were used as controls in (B).
(§2) (A and B) MDCK and HEK293 cells were incubated as described in previous figures with stapled-P5. Cell toxicity was then assessed by measuring release of LDH in the medium and caspase 3/7 activity in cell extracts. […] Direct lysis of cells served as a positive control for LDH release whereas active caspases were used in caspase assays.
(§3) The potency of GEF-H1 inhibitors was analysed in cell-based assays to determine effectiveness of inhibition of GEF-H1 signalling and specificity for GEF-H1, and in cell-based assays modelling epithelial degeneration or inflammatory disease. Potential toxicity of the inhibitors was determined by measuring apoptosis (Caspase3/7 activation) and necrosis (release of […]).

MDCK and HEK293 cells [2] = assay: Cell toxicity: caspase 3/7 activity in cell extracts (apoptosis); assay type: cell-based
Experimental: as §1, §2, §3

GEF-H1 [3] = biological target: T1, GEF-H1 (Canis lupus familiaris, UniProt Q865S3); assay: GEF-H1 overexpression-induced cell spreading / cell shape morphological assay; assay type: cell-based
T1 sequence (Q865S3 1-986): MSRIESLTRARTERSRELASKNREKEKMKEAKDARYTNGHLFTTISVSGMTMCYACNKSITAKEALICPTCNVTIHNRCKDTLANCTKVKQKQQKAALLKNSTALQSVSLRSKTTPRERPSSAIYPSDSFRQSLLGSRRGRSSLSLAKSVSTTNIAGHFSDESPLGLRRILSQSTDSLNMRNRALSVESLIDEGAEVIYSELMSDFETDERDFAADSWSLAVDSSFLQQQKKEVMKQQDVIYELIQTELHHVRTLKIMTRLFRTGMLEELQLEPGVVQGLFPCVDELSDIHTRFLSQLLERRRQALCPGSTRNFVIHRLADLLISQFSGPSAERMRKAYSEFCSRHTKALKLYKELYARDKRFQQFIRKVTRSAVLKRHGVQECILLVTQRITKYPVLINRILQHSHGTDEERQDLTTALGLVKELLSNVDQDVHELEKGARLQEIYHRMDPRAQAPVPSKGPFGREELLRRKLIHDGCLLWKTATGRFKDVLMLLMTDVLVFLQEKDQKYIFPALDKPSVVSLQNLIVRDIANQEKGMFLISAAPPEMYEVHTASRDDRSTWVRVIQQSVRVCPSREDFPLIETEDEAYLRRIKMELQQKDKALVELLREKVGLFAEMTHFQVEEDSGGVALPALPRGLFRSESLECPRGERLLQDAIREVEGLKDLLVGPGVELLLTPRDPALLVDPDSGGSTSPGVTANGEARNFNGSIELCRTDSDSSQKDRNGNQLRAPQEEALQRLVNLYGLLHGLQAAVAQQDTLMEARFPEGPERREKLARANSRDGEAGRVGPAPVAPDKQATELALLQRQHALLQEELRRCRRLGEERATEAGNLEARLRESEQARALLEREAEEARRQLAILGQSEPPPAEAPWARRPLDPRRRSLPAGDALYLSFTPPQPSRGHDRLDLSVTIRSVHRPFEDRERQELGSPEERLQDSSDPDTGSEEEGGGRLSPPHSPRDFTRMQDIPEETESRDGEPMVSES

[4] = system: interaction between RhoA and constitutively active GEF-H1 (DH/PH module); assay: GST-RhoA pulldown of constitutively active GEF-H1 from cell extracts; assay type: binding; details: GST-RhoA pull down, FIG. 5
Experimental: Recombinant fusion proteins of GST and RhoA were used for pulldown of constitutively active GEF-H1 from cell extracts. (A) Candidate peptide inhibitors were added to the pulldown. (B, C) Recombinant fragments from the CTD of GEF-H1 were added. Note, the further analysed P5 and F1 peptide inhibitors both block the interaction between RhoA and active GEF-H1.
2) Active GEF-H1 binds with high affinity to nucleotide-free and GDP-bound RhoA, its physiological substrate. […] Thus, both F1 and P5 block GEF-H1 function by the same mechanism. Based on these functional and biochemical assays (FIGS. 4 and 5), F1 and P5 were selected for further analysis and refinement. Membrane permeable derivatives were synthesized for both inhibitors: TAT-F1 and TAT-P5.
The P5 sequence and modified versions thereof, are derived from the interaction surface of RhoA with the active site of GEF-H1 (i.e., the DH domain). […] The same is true for the F1 sequence, as it blocks binding of RhoA to a DH/PH domain construct (FIG. 5).

[5] = system: primary retinal pigment epithelial (RPE) cells; assay: TGF-β stimulation of primary RPE cells (αSMA induction, junctional markers); assay type: cell-based
Experimental: Inhibition of TGF-β signaling in primary retinal pigment epithelial (RPE) cells. (A, B) Primary RPE cells were incubated with TAT-P5 or TAT-F1 and stimulated with TGF-β for five days. (A) αSMA and, as a loading control, tubulin expression were analysed by immunoblotting. […] (B) Expression of the junctional marker ZO-1 and tubulin were determined. (C) Primary RPE cells were incubated with TGF-β as in (A) but with stapled-P5, and expression of αSMA positive cells was analysed by immunofluorescence.
7) The inventors next tested the inhibitors in cell-based disease models. GEF-H1 drives fibrotic and degenrative responses in the RPE, which can be modelled by treating primary RPE cells with TGF-β.

[6] = system: Human primary endothelial cells; assay: LPS-induced endothelial activation; assay type: cell-based
From the text: GEF-H1 inhibitors prevent endothelial inflammatory responses induced by LPS. Human primary endothelial cells were stimulated with LPS in the presence or absence of the indicated GEF-H1 inhibitors. […] TAT-P5 and TAT-F1 attenuate cytoskeletal remodelling, ICAM1 induction, and attenuate loss of barrier function.
8) GEF-H1 regulates inflammatory responses in various cell types. […] Similarly, cytoskeletal remodeling and cell junction disruption was also attenuated in TNFα and Thrombin-stimulated endothelial cells.

GEF-H1 [7] = assay: SRE / αSMA promoter luciferase reporter gene assays of GEF-H1 signalling; assay type: cell-based; details: GEF-H1 overexpression
p114RhoGEF = biological target: T2, p114RhoGEF (Homo sapiens, UniProt Q6ZSZ5); assay: p114RhoGEF-induced cell rounding in MDCK cells (specificity); assay type: cell-based
T2 sequence (Q6ZSZ5 1-1015 isoform Q6ZSZ5-2): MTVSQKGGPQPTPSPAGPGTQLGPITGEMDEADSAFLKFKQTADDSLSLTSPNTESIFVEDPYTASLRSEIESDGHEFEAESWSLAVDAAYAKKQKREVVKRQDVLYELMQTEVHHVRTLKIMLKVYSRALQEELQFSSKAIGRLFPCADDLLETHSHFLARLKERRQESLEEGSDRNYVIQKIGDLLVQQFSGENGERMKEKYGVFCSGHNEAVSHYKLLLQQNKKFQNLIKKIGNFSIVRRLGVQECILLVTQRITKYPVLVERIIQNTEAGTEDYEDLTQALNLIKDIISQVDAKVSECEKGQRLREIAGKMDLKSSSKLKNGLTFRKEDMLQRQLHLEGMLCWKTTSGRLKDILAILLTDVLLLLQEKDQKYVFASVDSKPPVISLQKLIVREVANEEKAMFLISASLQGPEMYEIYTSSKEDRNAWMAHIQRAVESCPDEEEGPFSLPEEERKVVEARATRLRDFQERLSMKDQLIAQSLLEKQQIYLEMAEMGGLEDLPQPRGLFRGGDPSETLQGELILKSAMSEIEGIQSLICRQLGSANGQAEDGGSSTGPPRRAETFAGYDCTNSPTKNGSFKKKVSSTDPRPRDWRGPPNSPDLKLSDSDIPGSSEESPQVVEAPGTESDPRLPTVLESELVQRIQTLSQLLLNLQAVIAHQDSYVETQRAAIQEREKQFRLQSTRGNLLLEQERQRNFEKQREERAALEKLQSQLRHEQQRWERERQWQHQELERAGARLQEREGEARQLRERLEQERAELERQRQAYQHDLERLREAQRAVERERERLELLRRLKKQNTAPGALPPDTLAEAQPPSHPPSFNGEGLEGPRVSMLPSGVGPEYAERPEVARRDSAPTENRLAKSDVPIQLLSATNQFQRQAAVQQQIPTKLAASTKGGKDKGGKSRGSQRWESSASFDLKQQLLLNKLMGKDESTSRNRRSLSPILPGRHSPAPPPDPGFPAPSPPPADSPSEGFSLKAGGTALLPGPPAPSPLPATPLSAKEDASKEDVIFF

active Dbl = assay: αSMA / SRE reporter assays in cells overexpressing active Dbl (specificity); assay type: cell-based; details: TAT-F1 4 μM
[8] = stapled-P5, different concentrations analysed

Molecule: CC(C)C[C@H](NC(=O)[C@@H](N)CCCNC(=N)N)C(=O)NC1(C)CCCC=CCCCC(C)(C(=O)N2CCC[C@H]2C(=O)N[C@@H](CC(=O)O)C(=O)N[C@H](C(=O)O)[C@@H](C)O)NC(=O)[C@H](CO)NC(=O)[C@H](C)NC(=O)[C@@H]2CCCN2C1=O (stereo partly shown) [stapled-P5, RL(X)PAS(X)PDT; X = 2,(4, pentenyl)alanine] (H-RL[ξαMeNle(6-ylidene)]PAS[ξαMeNle(6-ylidene)]PDT-OH; staple 3-7)
- cell toxicity by release of LDH in the medium (MDCK and HEK293 cells [1]; [8]): No significant cell toxicity
- cell toxicity by caspase 3/7 activity in cell extracts (MDCK and HEK293 cells [2]; [8]): No significant cell toxicity

Molecule: GQEDYDRLRPASYPDTDVI (P5 amino acid sequence) [Peptide P5]
- inhibition of overexpressed GEF-H1, comparison of P1 to P5 (GEF-H1 [3]; morphological assay (cell spreading) and SRE-driven reporter assay, peptide transfection): most effective inhibitor
- inhibition of the interaction between RhoA and constitutively active GEF-H1 [4]: inhibited the interaction

Molecule: GRKKRRQRRRPWQGQEDYDRLRPASYPDTDVI [TAT-P5]
- cell toxicity by release of LDH in the medium (MDCK and HEK293 cells [1]; TAT-P5 5-20 μM): No significant cell toxicity
- cell toxicity by caspase 3/7 activity in cell extracts (MDCK and HEK293 cells [2]; TAT-P5 5-20 μM): No significant cell toxicity

B1: TAT-F1: F1 fused to a TAT sequence to render it membrane-permeable, SEQ ID NO: 7 (protein)
chain: MGGYGRKKRRQRRRGGGSGYPYDVPDYAGGSSSREDFPLIETEDEAYLRRIKMELQQKDKALVELLREKVGLFAEMTHFQVEEDSGGVALPALPRGLFRSESLECPRGERLLQDAIREVEGLKDLLVGPGVELLLTPRDPALLVDPDSGGSTSPGVTANGEARN
modifications: TAT-F1 amino acid sequence
- cell toxicity by release of LDH in the medium (MDCK and HEK293 cells [1]; TAT-F1 1-4 μM): No significant cell toxicity
- cell toxicity by caspase 3/7 activity in cell extracts (MDCK and HEK293 cells [2]; TAT-F1 1-4 μM): No significant cell toxicity
- downregulation of junctional markers ([5]; primary RPE cells treated with TGF-β, FIG. 11): inhibit downregulation
- TGF-β-induced induction of αSMA, a marker of epithelial fibrosis ([5]; primary RPE cells, FIG. 11): effectively suppress
- TGF-β induced αSMA expression normalised by tubulin (immunoblot) ([5]; primary RPE cells, TGF-β for five days): concentration-dependent repression
- LPS-induced ICAM1 induction ([6]; immunoblotting): attenuate
- LPS-induced cytoskeletal remodelling ([6]; immunofluorescence): attenuate
- LPS-induced loss of barrier function ([6]; paracellular permeability): attenuate
- transcription of the SRE-containing alpha-smooth muscle actin (αSMA) promoter (GEF-H1 [7]): inhibit transcription
- inhibition of p114RhoGEF overexpression-induced cell rounding (p114RhoGEF): not inhibited
- transcription from the αSMA promoter in cells overexpressing active Dbl (active Dbl): do not inhibit transcription

B2: F1: Fragment 1 of the auto-inhibitory C-terminal domain (CTD) of GEF-H1, SEQ ID NO: 2 (protein)
chain: SREDFPLIETEDEAYLRRIKMELQQKDKALVELLREKVGLFAEMTHFQVEEDSGGVALPALPRGLFRSESLECPRGERLLQDAIREVEGLKDLLVGPGVELLLTPRDPALLVDPDSGGSTSPGVTANGEARN
modifications: F1 amino acid sequence
- auto-inhibitory activity / block of GEF-H1 function by CTD fragments (GEF-H1 [3]; FIGS. 4 and 5 (cell spreading, SRE reporter, pulldown)): blocks GEF-H1 function
- inhibition of the interaction between RhoA and constitutively active GEF-H1 [4]: inhibited the interaction
